Literature values as cited in publication PMC5680199.

Molecular target: human thrombin (human) (UniProt P00734+P00734)
Assay: not stated (cited)
Settings: phi29 DNA polymerase buffer adjusted to 10 mM K+ (optimum), ThT-HE 5 uM, 37 C, 2 h; pH not given in material

For 29-mer thrombin-binding aptamer (TBA), the Kd is given as 0.5 nM.
